Broadly, the Kd is the free concentration of one partner at which half of the binding sites on the other are occupied at equilibrium, for simple one-to-one binding.

B1: huB1G5-CD3Fab (CD3 arm) (antibody, V domains shown)
VH: EVQLVESGGGLVQPGGSLKLSCAASGFTFSTYAMNWVRQAPGKGLEWVGRIRSKYNNYATYYADSVKDRFTISRDDSKNTLYLQMNSLKTEDTAVYYCTRHGNFGNSYVSWFAYWGQGTTVTVSS
VL: QAVVTQEPSLTVSPGGTVTLTCRSSTGAVTTSNYANWVQQKPGQAPRGLIGGTNKRAPGVPARFSGSLLGGKAALTLSGAQPEDEAEYFCALWYSNLWVFGGGTKLTVL
modifications: ACRO CDD-C52W4
B2: huB1G5-CD3-2VHH (CD3 arm) (antibody, V domains shown)
VH: EVQLVESGGGLVQPGGSLKLSCAASGFTFSTYAMNWVRQAPGKGLEWVGRIRSKYNNYATYYADSVKDRFTISRDDSKNTLYLQMNSLKTEDTAVYYCTRHGNFGNSYVSWFAYWGQGTTVTVSS
VL: QAVVTQEPSLTVSPGGTVTLTCRSSTGAVTTSNYANWVQQKPGQAPRGLIGGTNKRAPGVPARFSGSLLGGKAALTLSGAQPEDEAEYFCALWYSNLWVFGGGTKLTVL
modifications: ACRO CDD-C52W4
B3: huB1G5-ScFv-2VHH (CD3 arm) (antibody)
chain: EVQLVESGGGLVQPGGSLKLSCAASGFTFSTYAMNWVRQAPGKGLEWVGRIRSKYNNYATYYADSVKDRFTISRDDSKNTLYLQMNSLKTEDTAVYYCTRHGNFGNSYVSWFAYWGQGTTVTVSSGGGGSGGGGSGGGGSQAVVTQEPSLTVSPGGTVTLTCRSSTGAVTTSNYANWVQQKPGQAPRGLIGGTNKRAPGVPARFSGSLLGGKAALTLSGAQPEDEAEYFCALWYSNLWVFGGGTKLTVLG
modifications: ACRO CDD-C52W4
B4: huB1G5-CD3Fab (CD3 arm) (antibody, V domains shown)
VH: EVQLVESGGGLVQPGGSLKLSCAASGFTFSTYAMNWVRQAPGKGLEWVGRIRSKYNNYATYYADSVKDRFTISRDDSKNTLYLQMNSLKTEDTAVYYCTRHGNFGNSYVSWFAYWGQGTTVTVSS
VL: QAVVTQEPSLTVSPGGTVTLTCRSSTGAVTTSNYANWVQQKPGQAPRGLIGGTNKRAPGVPARFSGSLLGGKAALTLSGAQPEDEAEYFCALWYSNLWVFGGGTKLTVL
B5: huB1G5-CD3-2VHH (CD3 arm) (antibody, V domains shown)
VH: EVQLVESGGGLVQPGGSLKLSCAASGFTFSTYAMNWVRQAPGKGLEWVGRIRSKYNNYATYYADSVKDRFTISRDDSKNTLYLQMNSLKTEDTAVYYCTRHGNFGNSYVSWFAYWGQGTTVTVSS
VL: QAVVTQEPSLTVSPGGTVTLTCRSSTGAVTTSNYANWVQQKPGQAPRGLIGGTNKRAPGVPARFSGSLLGGKAALTLSGAQPEDEAEYFCALWYSNLWVFGGGTKLTVL
B6: huB1G5-ScFv-2VHH (CD3 arm) (antibody)
chain: EVQLVESGGGLVQPGGSLKLSCAASGFTFSTYAMNWVRQAPGKGLEWVGRIRSKYNNYATYYADSVKDRFTISRDDSKNTLYLQMNSLKTEDTAVYYCTRHGNFGNSYVSWFAYWGQGTTVTVSSGGGGSGGGGSGGGGSQAVVTQEPSLTVSPGGTVTLTCRSSTGAVTTSNYANWVQQKPGQAPRGLIGGTNKRAPGVPARFSGSLLGGKAALTLSGAQPEDEAEYFCALWYSNLWVFGGGTKLTVLG

The target in the first experiment is T1, cynomolgus monkey CD3 protein (cynomolgus monkey).
T1 chain: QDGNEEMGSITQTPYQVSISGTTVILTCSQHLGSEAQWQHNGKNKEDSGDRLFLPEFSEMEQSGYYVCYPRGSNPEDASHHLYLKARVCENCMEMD
Briefly: BLI. (In BLI a coated tip is dipped into the sample, and binding shifts an interference pattern.)
On to B1, for which the Kd turned out to be 6.59 nM. For B2, the affinity, expressed as Kd, was 6.92 nM. With B3, binding was put at a Kd of 28.2 nM.

For the next experiment, the target named is T2, human CD3 protein (human).
T2 chain: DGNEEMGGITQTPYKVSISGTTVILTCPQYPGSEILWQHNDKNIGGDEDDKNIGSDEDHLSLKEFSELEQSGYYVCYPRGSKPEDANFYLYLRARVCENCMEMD
Briefly: BLI.
Turning to B4, the Kd was determined as 26.3 nM. In turn, B5 showed a Kd of 22.6 nM. The same measure, in the same setting: for B6 the value was 35.7 nM.

For the origin of these results see patent US20260327304 (published 2026).
